Test results taken from PMC3305447, “A Peptidoglycan Fragment Triggers β-lactam Resistance in Bacillus licheniformis” (PLoS Pathogens, 2012).

Experiments:
[1] = biological target: Bacillus licheniformis 749/I BlaI repressor (BlaI-His) (Bacillus licheniformis 749/I) (UniProt P06555)
MecI [2] = biological target: T1, MecI (Staphylococcus aureus, UniProt P68261); experiment: agarose-gel EMSA, dissociation of repressor-operator DNA complex; type: binding
T1 construct: full-length with C-terminal His6 (pET22b), recombinant, purified; homodimer; 15N-labelled for NMR
Target sequence in this assay (P68261 1-122): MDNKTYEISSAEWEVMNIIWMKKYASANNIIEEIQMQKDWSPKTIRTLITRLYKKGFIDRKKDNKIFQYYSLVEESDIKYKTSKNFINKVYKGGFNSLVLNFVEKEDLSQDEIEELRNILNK

MecI [3] = biological target: T1, MecI; experiment: NMR titration, 1H-15N SOFAST-HMQC chemical shifts; type: binding
[4] = biological target: Staphylococcus aureus MecI repressor (MecI-His) (Staphylococcus aureus ATCC 43300) (UniProt P68261); experiment: native gel or EMSA
Chain of Staphylococcus aureus MecI repressor (MecI-His) (Staphylococcus aureus ATCC 43300) (P68261 whole entry): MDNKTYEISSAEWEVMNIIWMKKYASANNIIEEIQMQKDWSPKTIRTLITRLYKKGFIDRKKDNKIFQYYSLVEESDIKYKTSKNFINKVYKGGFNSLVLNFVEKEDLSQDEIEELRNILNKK

[5] = biological target: Staphylococcus aureus MecI repressor (MecI-His) (Staphylococcus aureus ATCC 43300) (UniProt P68261)

Chain of Bacillus licheniformis 749/I BlaI repressor (BlaI-His) (Bacillus licheniformis 749/I) (P06555 whole entry): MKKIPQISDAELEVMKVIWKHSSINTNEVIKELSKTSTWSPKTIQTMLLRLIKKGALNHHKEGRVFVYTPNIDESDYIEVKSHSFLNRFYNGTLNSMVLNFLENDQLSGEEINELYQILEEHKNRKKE

In the case of γ-D-Glu-m-A2pm dipeptide, the concentration of dipeptide allowing the displacement of 50% of bound BlaI from its nucleic operator (agarose gel EMSA titration, 10 to 50 nmol dipeptide in 20 µl) [1] is reported as 2 mM.
Work on `NCCCC[C@H](NC(=O)CC[C@@H](N)C(=O)O)C(=O)O` [dipeptide 2, γ-D-Glu-L-Lys] yielded an IC50 (MecI [2]) of ~2000 µM and a Kd (MecI [3]) of 8000 ± 2000 µM.
For γ-D-Glu-L-Lys dipeptide, the Kd [4] was 2000 µM and the concentration of dipeptide allowing the displacement of 50% of bound MecI from its nucleic operator (agarose gel EMSA titration, 10 to 50 nmol dipeptide in 20 µl) [5] was 2 mM.
